Results published in US20230321287A1, “RADIOLABELLED GRPR-ANTAGONIST FOR USE AS THERAGNOSTIC” (NOVARTIS AG, priority 2019, published 2023).

What was measured:
clinical [1] = conditions: for tissue uptake at 4 h / tissue uptake at 0.25 h / tissue uptake at 1 h / tissue uptake at 2 h: human, Relative radiotracer uptake
Source text: (§1) The primary objective was to characterize preliminary targeting properties of [68Ga] NeoB in patients with malignancies known to overexpress GRPR. The primary efficacy endpoints were: • Number and location of tumor lesions detected by [68Ga]-NeoBOMB1 overall and for each tumor type • Calculation of the ratio tumor/background standard uptake value (SUV) and %injected dose per gram of tissue (ID/g) and calculation of absorbed dose (mGy/MBq) in tumor overall and for each tumor type.
Accordingly, highest relative tracer uptake following administration of a bombesin antagonist is expected in pancreas, kidney, and liver (Roivainen et al, 2013).

GRPR [2] = molecular target: T1, GRPR (Homo sapiens, UniProt P30550); conditions: non-clinical models; cited from earlier work
Target sequence in this assay (P30550 whole entry, species assumed): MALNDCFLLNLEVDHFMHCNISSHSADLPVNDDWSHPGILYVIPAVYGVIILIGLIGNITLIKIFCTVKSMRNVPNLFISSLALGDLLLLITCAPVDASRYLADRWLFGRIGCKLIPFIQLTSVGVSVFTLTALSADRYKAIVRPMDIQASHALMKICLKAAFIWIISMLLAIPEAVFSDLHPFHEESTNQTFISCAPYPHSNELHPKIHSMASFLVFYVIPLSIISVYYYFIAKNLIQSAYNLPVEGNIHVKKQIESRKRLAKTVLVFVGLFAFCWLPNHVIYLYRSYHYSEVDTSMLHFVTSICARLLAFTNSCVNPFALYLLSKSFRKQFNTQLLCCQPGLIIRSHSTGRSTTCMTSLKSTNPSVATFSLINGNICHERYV

[3] = in vivo
GRPR [4] = molecular target: T1, GRPR; conditions: GRPR expressed in breast, prostate and GIST; non-clinical models; cited from earlier work
Target sequence in this assay (P30550 whole entry, species assumed): as above

[5] = 6 patients with GIST; cited from earlier work
clinical [6] = conditions: human, tumor lesions; for SUV at 2.5 h / SUV at 1.5 h: non-dosimetry group; for SUV at 2.5 h: breast tumors, 2 h 30 minutes; for SUV at 1.5 h: prostatic tumors, 1 h 30 minutes
Source text: as §1
(§2) The dosimetry group comprised only patients with breast cancer (N=2).

GRPR [7] = molecular target: T1, GRPR; test: clinical; conditions: dosimetry group, breast cancer N=2
Source text: as §1, §2
Target sequence in this assay (P30550 whole entry): as the sequence (P30550 whole entry, species assumed) above

clinical [8] = conditions: human
Source text: To obtain SUVmean aorta, a spherical volume with a diameter of two (2) cm should be measured within the aortic arch. All SUVr values above one (1) are considered as positive GRPR overexpression.
SUVr is the ratio between SUV mean of each lesion detected by [^68Ga]-NeoBOMB1 and the SUVmean of the region of reference.

[9] = maximum injected activity of 250 MBq

SMILES: CC(C)CC(CC(C)C)NC(=O)[C@H](Cc1cnc[nH]1)NC(=O)CNC(=O)[C@@H](NC(=O)[C@H](C)NC(=O)[C@H](Cc1c[nH]c2ccccc12)NC(=O)[C@H](CCC(N)=O)NC(=O)[C@@H](Cc1ccccc1)NC(=O)COCC(=O)Nc1ccc(CNC(=O)CN2CCN(CC(=O)O)CCN(CC(=O)O)CCN(CC(=O)O)CC2)cc1)C(C)C [[68Ga]-NeoB, metal not drawn]
- tissue uptake at 4 h (clinical [1]; tumor lesion T5-liverR2, total radioactivity, patient FR01-009, tumor lesion T5-liverR2, 240 min/207.9 min actual): 0.0212 %ID/g
- tissue uptake at 0.25 h (clinical [1]; tumor lesion T6-sacrumL, total radioactivity, patient FR01-009, 15 min/17.8 min actual): 0.00315 %ID/g
- tissue uptake at 1 h (clinical [1]; tumor lesion T6-sacrumL, total radioactivity, patient FR01-009, 60 min/60.7 min actual): 0.00289 %ID/g
- tissue uptake at 2 h (clinical [1]; tumor lesion T6-sacrumL, total radioactivity, patient FR01-009, 120 min/123.9 min actual): 0.00254 %ID/g
- tissue uptake at 4 h (clinical [1]; tumor lesion T6-sacrumL, total radioactivity, patient FR01-009, 240 min/207.9 min actual): 0.00188 %ID/g
- tissue uptake at 0.25 h (clinical [1]; tumor lesion T7-liverP, total radioactivity, patient FR01-009, 15 min/17.8 min actual): 0.0122 %ID/g
- tissue uptake at 1 h (clinical [1]; tumor lesion T7-liverP, total radioactivity, patient FR01-009, 60 min/60.7 min actual): 0.0118 %ID/g
- tissue uptake at 2 h (clinical [1]; tumor lesion T7-liverP, total radioactivity, patient FR01-009, 120 min/123.9 min actual): 0.0124 %ID/g
- tissue uptake at 4 h (clinical [1]; tumor lesion T7-liverP, total radioactivity, patient FR01-009, 240 min/207.9 min actual): 0.0108 %ID/g
- tissue uptake at 0.25 h (clinical [1]; tumor lesion T8-liverR, total radioactivity, patient FR01-009, 15 min/17.8 min actual): 0.0108 %ID/g
- tissue uptake at 1 h (clinical [1]; tumor lesion T8-liverR, total radioactivity, patient FR01-009, 60 min/60.7 min actual): 0.00961 %ID/g
- tissue uptake at 2 h (clinical [1]; tumor lesion T8-liverR, total radioactivity, patient FR01-009, 120 min/123.9 min actual): 0.0109 %ID/g
- tissue uptake at 0.25 h (clinical [1]; urinary bladder wall, total radioactivity, patient FR01-008, 15 min/38.6 min actual): 0.0313 %ID/g
- tissue uptake at 1 h (clinical [1]; urinary bladder wall, total radioactivity, patient FR01-008, 60 min/62.6 min actual): 0.0426 %ID/g
- tissue uptake at 2 h (clinical [1]; urinary bladder wall, total radioactivity, patient FR01-008, 120 min/123.2 min actual): 0.0214 %ID/g
- tissue uptake at 4 h (clinical [1]; urinary bladder wall, total radioactivity, patient FR01-008, 240 min/221.1 min actual): 0.0179 %ID/g
- tissue uptake at 0.25 h (clinical [1]; urinary bladder wall, total radioactivity, patient FR01-009, 15 min/17.8 min actual): 0.0268 %ID/g
- tissue uptake at 1 h (clinical [1]; urinary bladder wall, total radioactivity, patient FR01-009, 60 min/60.7 min actual): 0.0648 %ID/g
- tissue uptake at 2 h (clinical [1]; urinary bladder wall, total radioactivity, patient FR01-009, 120 min/123.9 min actual): 0.0405 %ID/g
- tissue uptake at 4 h (clinical [1]; urinary bladder wall, total radioactivity, patient FR01-009, 240 min/207.9 min actual): 0.11 %ID/g
- Relative radiotracer uptake (clinical [1]; patient FR01-008, Alveolar-interstitial (Lungs), 15 min/38.6 min actual): 2.1842E-03 %ID/g
- Relative radiotracer uptake (clinical [1]; patient FR01-008, Alveolar-interstitial (Lungs), 60 min/62.6 min actual): 9.4759E-04 %ID/g
- Relative radiotracer uptake (clinical [1]; patient FR01-008, Alveolar-interstitial (Lungs), 120 min/123.2 min actual): 6.7856E-04 %ID/g
- Relative radiotracer uptake (clinical [1]; patient FR01-008, Alveolar-interstitial (Lungs), 240 min/221.1 min actual): 6.2082E-04 %ID/g
- Relative radiotracer uptake (clinical [1]; patient FR01-008, Heart wall, 15 min/38.6 min actual): 6.0002E-03 %ID/g
- Relative radiotracer uptake (clinical [1]; patient FR01-008, Heart wall, 60 min/62.6 min actual): 2.4054E-03 %ID/g
- Relative radiotracer uptake (clinical [1]; patient FR01-008, Heart wall, 120 min/123.2 min actual): 1.6323E-03 %ID/g
- Relative radiotracer uptake (clinical [1]; patient FR01-008, Heart wall, 240 min/221.1 min actual): 1.3018E-03 %ID/g
- Relative radiotracer uptake (clinical [1]; patient FR01-008, Kidneys, 15 min/38.6 min actual): 6.8821E-03 %ID/g
- Relative radiotracer uptake (clinical [1]; patient FR01-008, Kidneys, 60 min/62.6 min actual): 5.7654E-03 %ID/g
- Relative radiotracer uptake (clinical [1]; patient FR01-008, Kidneys, 120 min/123.2 min actual): 2.3856E-03 %ID/g
- Relative radiotracer uptake (clinical [1]; patient FR01-008, Kidneys, 240 min/221.1 min actual): 1.4872E-03 %ID/g
- Relative radiotracer uptake (clinical [1]; patient FR01-008, Spleen, 240 min/221.1 min actual): 1.2014E-03 %ID/g
- Relative radiotracer uptake (clinical [1]; patient FR01-008, tumor lesion T1-Chest, 15 min/38.6 min actual): 3.4664E-03 %ID/g
- Relative radiotracer uptake (clinical [1]; patient FR01-008, tumor lesion T1-Chest, 60 min/62.6 min actual): 2.1832E-03 %ID/g
- Relative radiotracer uptake (clinical [1]; patient FR01-008, tumor lesion T1-Chest, 120 min/123.2 min actual): 1.4935E-03 %ID/g
- Relative radiotracer uptake (clinical [1]; patient FR01-008, tumor lesion T1-Chest, 240 min/221.1 min actual): 1.2884E-03 %ID/g
- Relative radiotracer uptake (clinical [1]; patient FR01-008, tumor lesion T2-Left rib, 15 min/38.6 min actual): 3.8441E-03 %ID/g
- Relative radiotracer uptake (clinical [1]; patient FR01-008, tumor lesion T2-Left rib, 60 min/62.6 min actual): 2.5064E-03 %ID/g
- Relative radiotracer uptake (clinical [1]; patient FR01-008, tumor lesion T2-Left rib, 120 min/123.2 min actual): 1.7251E-03 %ID/g
- Relative radiotracer uptake (clinical [1]; patient FR01-008, tumor lesion T2-Left rib, 240 min/221.1 min actual): 1.6681E-03 %ID/g
- Relative radiotracer uptake (clinical [1]; patient FR01-008, tumor lesion T3-Spine, 15 min/38.6 min actual): 4.6895E-03 %ID/g
- Relative radiotracer uptake (clinical [1]; patient FR01-008, tumor lesion T3-Spine, 60 min/62.6 min actual): 2.2489E-03 %ID/g
- Relative radiotracer uptake (clinical [1]; patient FR01-008, tumor lesion T3-Spine, 120 min/123.2 min actual): 1.8497E-03 %ID/g
- Relative radiotracer uptake (clinical [1]; patient FR01-008, tumor lesion T3-Spine, 240 min/221.1 min actual): 1.9539E-03 %ID/g
- internalization upon binding to the specific receptor (GRPR [2]): low degree of internalization
- calculated human dose extrapolated from animal model [3]: 0.039 mSv/MBq
- affinity to the GRPR (GRPR [4]): high affinity
- effective dose, mean [5]: 0.029 ± 0.06 mSv/MBq
- SUV at 2.5 h (clinical [6]; overall (breast tumors), highest SUVmax, overall): 23.1 SUV
- SUV at 1.5 h (clinical [6]; overall locations (prostatic tumors), highest SUVmean, overall locations): 11.6 SUV
- SUV at 2 h (clinical [6]; soft tissue/visceral (breast cancer), highest SUVmax, dosimetry group, breast cancer N=2, soft tissue/visceral, 2 h): 25.8 SUV
- SUV at 4 h (clinical [6]; soft tissue/visceral (breast cancer), highest SUVmax, dosimetry group, breast cancer N=2, soft tissue/visceral): 26.4 SUV
- SUV at 0.25 h (clinical [6]; soft tissue/visceral (breast cancer), highest SUVmean, dosimetry group, breast cancer N=2, soft tissue/visceral, 15 minutes): 9.24 SUV
- SUV at 4 h (clinical [6]; soft tissue/visceral (breast cancer), highest SUVmean, dosimetry group, breast cancer N=2, soft tissue/visceral): 9.14 SUV
- SUV at 2.5 h (clinical [6]; soft tissue/visceral (breast tumors), highest SUVmax, soft tissue/visceral): 22.1 SUV
- SUV at 1.5 h (clinical [6]; soft tissue/visceral (prostatic tumors), highest SUVmean, soft tissue/visceral): 14 SUV
- time at which SUVmax values in lesions peaked (GRPR [7]): 4 h
- time at which SUVmean values in lesions peaked (GRPR [7]): 15 min
- SUV (clinical [8]; lesion / region of reference): ~1 SUV
- SUV (clinical [8]; lesion / spleen or MBP (aorta or heart)): > 1 SUV
- estimated effective dose per exam [9]: 7.25 mSv
